Source: article PMC8184503 (iScience, 2021)
Primed or numbered codes have the meaning given here. Where no end group is shown, it is not given here. FITC′ = fluorescein isothiocyanate

B1: GST-tagged TCF4 N-terminal domain (aa 1-55) (domain or fragment, UniProt Q9NQB0 1-55, looked up)
chain: MPQLNGGGGDDLGANDELISFKDEGEQEEKSSENSSAERDLADVKSSLVNESETN

Target: T1, His-tagged β-cat (ARM domain, aa 134-668) (UniProt P35222 134-668)
T1 sequence (looked up): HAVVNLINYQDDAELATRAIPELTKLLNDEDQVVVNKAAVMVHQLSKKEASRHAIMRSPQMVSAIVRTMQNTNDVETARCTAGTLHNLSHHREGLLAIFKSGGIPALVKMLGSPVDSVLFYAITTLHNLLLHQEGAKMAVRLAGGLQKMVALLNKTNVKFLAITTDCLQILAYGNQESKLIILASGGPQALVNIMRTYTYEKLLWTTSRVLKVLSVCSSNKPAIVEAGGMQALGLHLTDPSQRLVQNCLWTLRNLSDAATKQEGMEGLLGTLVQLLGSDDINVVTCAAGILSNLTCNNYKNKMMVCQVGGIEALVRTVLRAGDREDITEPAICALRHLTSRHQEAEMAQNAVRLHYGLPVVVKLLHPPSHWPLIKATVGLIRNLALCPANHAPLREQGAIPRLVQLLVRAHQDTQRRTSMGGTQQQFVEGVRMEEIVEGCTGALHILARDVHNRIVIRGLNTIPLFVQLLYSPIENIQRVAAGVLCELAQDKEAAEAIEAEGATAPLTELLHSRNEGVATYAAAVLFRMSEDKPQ
Test: SPR

Binder | IC50 [nM] | binding result
GGGDDLGANDELISFKDEGEQEEKSSENSSAERDLADVKSSLVNE-{FITC′} [C-terminal FITC-labeled TCF4 peptide (aa 7-51)] | 29 | –
B1 | – | binds
